# Measurements: paper PMC3891853
# Legend:
# [1] = biological target: HA-tagged glucocorticoid receptor (GR) (UniProt P04150); assay: co-immunoprecipitation with anti-Flag agarose, Western blot densitometry; conditions: HEK293 cells, transient transfection, mean + SEM, N = 3, parent: 100, read off a plot
# Hsc70/Hsp70 = assay: co-immunoprecipitation with anti-Flag agarose, densitometry of co-precipitated Hsc/Hsp70; conditions: HEK293 cells, transient transfection; mean + SEM, N = 3; parent: 100; read off a plot
# [2] = biological target: Hsc70, in vitro translated and labeled (UniProt P11142)
# UniProt P11142, sequence (P11142 whole entry): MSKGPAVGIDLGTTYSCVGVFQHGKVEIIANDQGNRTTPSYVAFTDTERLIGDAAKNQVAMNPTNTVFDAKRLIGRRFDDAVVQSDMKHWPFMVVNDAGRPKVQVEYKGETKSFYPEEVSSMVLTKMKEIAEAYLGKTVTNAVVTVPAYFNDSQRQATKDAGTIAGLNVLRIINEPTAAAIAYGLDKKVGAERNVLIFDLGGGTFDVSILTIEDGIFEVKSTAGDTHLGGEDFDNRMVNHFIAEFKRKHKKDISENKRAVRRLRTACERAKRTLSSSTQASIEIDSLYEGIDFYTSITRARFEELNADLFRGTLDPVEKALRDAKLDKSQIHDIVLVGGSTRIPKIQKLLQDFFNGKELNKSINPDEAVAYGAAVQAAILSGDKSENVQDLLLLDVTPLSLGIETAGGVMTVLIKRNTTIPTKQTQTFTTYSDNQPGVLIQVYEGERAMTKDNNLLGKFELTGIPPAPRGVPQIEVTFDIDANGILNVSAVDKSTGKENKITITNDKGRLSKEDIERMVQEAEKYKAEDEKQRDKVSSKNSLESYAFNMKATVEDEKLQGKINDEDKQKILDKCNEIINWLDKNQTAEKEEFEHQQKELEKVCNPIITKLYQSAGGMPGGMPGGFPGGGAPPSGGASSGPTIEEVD
# UniProt P04150, sequence (P04150 whole entry): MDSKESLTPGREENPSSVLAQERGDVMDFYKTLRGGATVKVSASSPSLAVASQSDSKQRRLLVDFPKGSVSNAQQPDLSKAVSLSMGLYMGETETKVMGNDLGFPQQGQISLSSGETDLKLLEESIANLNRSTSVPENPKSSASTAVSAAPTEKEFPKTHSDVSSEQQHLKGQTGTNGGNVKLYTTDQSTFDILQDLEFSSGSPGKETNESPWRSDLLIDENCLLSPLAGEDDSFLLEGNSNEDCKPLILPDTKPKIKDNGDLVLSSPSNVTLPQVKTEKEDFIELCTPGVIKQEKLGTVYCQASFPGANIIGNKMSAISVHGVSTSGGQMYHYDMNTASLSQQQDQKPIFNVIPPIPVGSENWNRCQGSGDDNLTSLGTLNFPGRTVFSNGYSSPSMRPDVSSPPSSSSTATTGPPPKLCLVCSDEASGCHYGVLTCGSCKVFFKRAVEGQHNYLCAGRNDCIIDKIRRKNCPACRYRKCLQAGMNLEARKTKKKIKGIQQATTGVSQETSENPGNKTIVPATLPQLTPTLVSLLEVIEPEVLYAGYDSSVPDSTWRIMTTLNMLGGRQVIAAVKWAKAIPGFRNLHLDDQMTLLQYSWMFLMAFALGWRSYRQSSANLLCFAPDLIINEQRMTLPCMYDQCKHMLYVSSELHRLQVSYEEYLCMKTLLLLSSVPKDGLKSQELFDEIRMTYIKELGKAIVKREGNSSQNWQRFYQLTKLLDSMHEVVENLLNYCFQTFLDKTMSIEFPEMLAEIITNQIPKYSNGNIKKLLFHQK
Molecule,percent of parent (% (BAG-1M = 100%)) [1],percent of parent (% (BAG-1M = 100%)) (Hsc70/Hsp70),"ATPase activity of purified Hsc70 with DJA2 and HspBP1 mut (each 4 µM, 30°C) [2]"
"Flag-tagged wild-type Bcl2-associated athanogene 1, medium isoform (BAG-1M) R237A",18,6,–
"purified HspBP1_mut (A137R, K249A; His-tagged) (natural protein) MSDEGSRGSRLPLALPPASQGCSSGGGGGGSSAGGSGNSRPPRNLQGLLQMAITAGSEEPDPPPEPMSEERRQWLQEAMSAAFRGQREEVEQMKSCLRVLSQPMPPTAGEAEQAADQQEREGALELLADLCENMDNRADFCQLSGMHLLVGRYLEAGAAGLRWRAAQLIGTCSQNVAAIQEQVLGLGALRKLLRLLDRDACDTVRVKALFAISCLVREQEAGLLQFLRLDGFSVLMRAMQQQVQKLKVASAFLLQNLLVGHPEHKGTLCSMGMVQQLVALVRTEHSPFHEHVLGALCSLVTDFPQGVRECREPELGLEELLRHRCQLLQQHEEYQEELEFCEKLLQTCFSSPADDSMDR",–,–,7.26 min⁻¹
